Measured values reported in IntAct's records for PubMed 8626665.

B1: Transcription initiation factor IIA subunit 2 (Homo sapiens), P52657 (parent)
chain: MAYQLYRNTTLGNSLQESLDELIQSQQITPQLALQVLLQFDKAINAALAQRVRNRVNFRGSLNTYRFCDNVWTFVLNDVEFREVTELIKVDKVKIVACDGKNTGSNTTE
B2: Transcription initiation factor IIA subunit 2 (Homo sapiens), P52657 (parent)
chain: B1 chain
partner: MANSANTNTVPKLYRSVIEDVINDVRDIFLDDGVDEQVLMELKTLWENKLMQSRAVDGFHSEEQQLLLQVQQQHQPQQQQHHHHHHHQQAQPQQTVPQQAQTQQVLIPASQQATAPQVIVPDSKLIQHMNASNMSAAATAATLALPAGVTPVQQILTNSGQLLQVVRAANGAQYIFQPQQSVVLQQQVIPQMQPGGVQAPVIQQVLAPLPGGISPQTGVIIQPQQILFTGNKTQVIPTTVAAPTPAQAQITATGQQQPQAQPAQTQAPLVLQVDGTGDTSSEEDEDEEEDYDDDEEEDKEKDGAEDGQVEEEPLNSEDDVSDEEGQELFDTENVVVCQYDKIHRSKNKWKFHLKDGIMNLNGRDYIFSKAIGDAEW

Variants of: B1
Conditions: with tbp_human TBP

Effect of a mutation on the interaction, decreasing interaction:
D20A
Y65A

Variants of: B2
Conditions: with tf2aa_human GTF2A1, P52655

Effect of a mutation on the interaction, decreasing interaction:
K42A
E109A
F40A
D41A
